Consider one molecule from patent publication US20230243823, “BIOMARKER SENSOR-BASED DETECTION OF DISEASE-SPECIFIC BIOMARKERS” (FORSCHUNGSZENTRUM JÜLICH GMBH, published 2023).

The target of this data set is lactate dehydrogenase (PfLDH) (Plasmodium falciparum, UniProt Q76NM3 Q76NM3:1-316). As to the kind of experiment: sandwich plasmon-enhanced fluorescence apta-immunosensor; PfLDH captured by anti-pLDH on AuNPs from diluted human blood; 0.1 uM aptamer in 10 mM PBS with 1 mM MgCl2 pH 7.1; signal orders of magnitude above PvLDH. To be noted: tags: obtained by bacterial expression; chain copies: 4. The protocol: Uninfected human blood was diluted 1:100 in 25 mM Tris buffer to reduce sample turbidity. The desired amount of Plasmodium falciparum lactate dehydrogenase (P<DH) was added to 1 ml of a diluted solution of the sample to obtain analyte concentrations ranging from 1 fM to 1 μm (based on the undiluted blood). The functionalised substrates were incubated with 1 ml of contaminated blood solution for 2 hours at room temperature.
The specificity of the apta immunosensor was tested against lactate dehydrogenase of Plasmodium vivax (P<LDH), which is 90% identical to P<LDH. The P<LDH was added to uninfected human blood (diluted 1:100 in 1 mL 25 mM Tris buffer) to obtain the highest analyte concentration tested in the calibration curve (1 μM based on undiluted whole blood).

On to CTGGGCGGTAGAACCATAGTGACCCAGCCGTCTAC (ssDNA) [malaria 2008s aptamer], for which the binding result was “binds”.
